Here are results for 13 substances from patent US20220348631A1.

Common to all, as to assay: cell-based or functional assay
The target of test [1] is PD-L1 on LoVo / LoVo.OKT3.GFP cells (UniProt Q9NZQ7).
The target in test [2] is carcinoembryonic antigen (CEA) on LoVo, LS174T or H508 tumor cells (UniProt P06731).
Test [3] has as its target Human folate receptor alpha (FolR) on cells (human) (UniProt P15328).

Where “and” joins values, the source holds several entries; their conditions need not be identical. Identical values can stand only once.

UniProt P06731, sequence (P06731 35-702 limits assumed): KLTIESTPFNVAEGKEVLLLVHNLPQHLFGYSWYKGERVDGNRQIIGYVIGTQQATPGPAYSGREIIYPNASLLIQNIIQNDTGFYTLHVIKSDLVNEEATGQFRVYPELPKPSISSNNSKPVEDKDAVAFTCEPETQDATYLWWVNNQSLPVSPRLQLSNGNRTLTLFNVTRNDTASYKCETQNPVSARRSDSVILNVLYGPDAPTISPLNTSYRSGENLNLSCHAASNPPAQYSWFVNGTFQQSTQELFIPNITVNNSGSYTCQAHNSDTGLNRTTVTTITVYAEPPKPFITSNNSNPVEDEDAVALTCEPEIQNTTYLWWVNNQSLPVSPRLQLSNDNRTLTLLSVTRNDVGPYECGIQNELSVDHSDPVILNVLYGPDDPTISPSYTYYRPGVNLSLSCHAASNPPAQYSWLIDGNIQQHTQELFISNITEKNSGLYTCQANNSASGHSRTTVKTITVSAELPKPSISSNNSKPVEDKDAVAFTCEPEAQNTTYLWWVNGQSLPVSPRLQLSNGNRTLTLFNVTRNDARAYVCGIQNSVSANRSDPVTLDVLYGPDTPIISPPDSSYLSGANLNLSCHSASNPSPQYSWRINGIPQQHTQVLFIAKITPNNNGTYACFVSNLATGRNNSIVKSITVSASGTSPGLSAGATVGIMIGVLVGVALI
UniProt P15328, sequence (P15328 25-234): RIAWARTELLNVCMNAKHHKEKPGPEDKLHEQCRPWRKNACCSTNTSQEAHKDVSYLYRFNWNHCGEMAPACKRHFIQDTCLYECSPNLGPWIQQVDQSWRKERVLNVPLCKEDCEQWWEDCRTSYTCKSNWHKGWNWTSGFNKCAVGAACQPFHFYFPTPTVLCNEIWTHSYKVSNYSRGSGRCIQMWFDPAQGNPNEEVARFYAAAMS
UniProt Q9NZQ7, sequence (Q9NZQ7 19-290 limits assumed): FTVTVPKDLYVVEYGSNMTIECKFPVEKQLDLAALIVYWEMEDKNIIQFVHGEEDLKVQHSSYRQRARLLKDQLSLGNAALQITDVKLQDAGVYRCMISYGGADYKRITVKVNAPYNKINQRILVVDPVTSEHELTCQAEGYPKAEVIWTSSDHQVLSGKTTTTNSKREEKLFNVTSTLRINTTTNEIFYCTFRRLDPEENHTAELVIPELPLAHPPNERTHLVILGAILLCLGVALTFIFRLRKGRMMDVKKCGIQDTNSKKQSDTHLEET

The substance “CTP188 PD1_PD1_sCD28TM_CD28_CD40 (dimeric) (receptor)” registered an IL-2 secretion (ELISA), 24 h coculture with LoVo-OKT3 in test [1] below 1000 pg/mL.

Substance “CTP189 PD1_PD1_sCD28TM_CD28_CD40 (monomeric) (receptor)” displayed an IL-2 secretion (ELISA), 24 h coculture with LoVo-OKT3 in test [1] below 1000 pg/mL.

In test [2], “CTP194 OSM_MFE23_spCD28_CD28_CD40 (receptor)” showed an IFNγ (ELISA) after 24 h with LoVo-OKT3 above 30 ng/mL; an IFNγ (ELISA), coculture with LoVo-OKT3 of 1000 pg/mL; an IL-2 (ELISA) after 24 h with LoVo-OKT3 of 4000 pg/mL; an IL-2 (ELISA), coculture with LoVo-OKT3 of 4000 pg/mL. In test [2], this substance yielded an IL-2 secretion (ELISA), 24 h coculture with LoVo-OKT3 of 4000 pg/mL; an IL-2 secretion (ELISA), coculture with LoVo-OKT3 of 29 ng/mL; a T-cell expansion over 18 days with LoVo-OKT3 and IL-2 above 60 fold; a fold expansion after two rounds of stimulation with LoVo-OKT3 of 10 fold. Further, in test [2], the fold expansion on serial stimulation with LoVo-OKT3 worked out at 12 fold; the fold expansion with LoVo-OKT3, after restimulation (day 14-15) was above 10 fold; the fold expansion with LoVo-OKT3, first time point (day 6-8) is 4 fold.

Regarding “CTP195 OSM_MFE23_spCD28_CD28_CD40 (SVQE-AVQA) (receptor)”, in test [2], the IFNγ (ELISA) after 24 h with LoVo-OKT3 was above 30 ng/mL and the IL-2 (ELISA) after 24 h with LoVo-OKT3 amounted to 4000 pg/mL.

As to “CTP196 OSM_MFE23_spCD28_CD28_CD40 (PVQET-AVAEA) (receptor)”, the IFNγ (ELISA) after 24 h with LoVo-OKT3 in test [2] was 10 ng/mL.

Substance “CTP197 OSM_MFE23_spCD28_CD28_CD40 (PQEINF-AQAINF) (receptor)” returned an IFNγ (ELISA) after 24 h with LoVo-OKT3 in test [2] above 30 ng/mL.

With “CTP198 OSM_MFE23_spCD28_CD28_CD40 (P227A) (receptor)”, in test [2], the IFNγ (ELISA) after 24 h with LoVo-OKT3 was above 30 ng/mL and the IL-2 (ELISA) after 24 h with LoVo-OKT3 stood at 4000 pg/mL.

Regarding “CTP200 OSM_MFE23_spCD28_CD28_CD40_CD40_CD40 (receptor)”, the IFNγ (ELISA) after 24 h with LoVo-OKT3 in test [2] is above 30 ng/mL.

In test [2], “CTP201 OSM_MFE23_spCD28_CD28 (PYAPP-AYAA)_CD40 (receptor)” yielded an IFNγ (ELISA), coculture with LoVo-OKT3 of 1000 pg/mL and an IL-2 (ELISA), coculture with LoVo-OKT3 of 2500 pg/mL.

In test [2], “CTP202 OSM_MFE23_spCD28_CD28 (YMNM-FMNM)_CD40 (receptor)” yielded an IL-2 (ELISA), coculture with LoVo-OKT3 of 2500 pg/mL.

“MFE23 CD28(IEV) truncated CoStAR (receptor)”: the IL-2 secretion (ELISA), coculture with LoVo-OKT3 in test [2] was found to be 4.6 ng/mL.

In the case of “MOV19.CD28 CoStAR (from UniProt P10747 19-220) (receptor)”, in test [3], the enhancement of Bcl-XL induction in the presence of OvCAR-OKT3 was found to be 20%; the enhancement of IL-2 induction in the presence of OvCAR-OKT3 was found to be 20%; the enhancement of TNFα production in the presence of OvCAR-OKT3 lay in the range of 20 to 30%; the mean fold expansion of T cells, 21 days with OvCAR-OKT3 is 187 fold.

Consider “MOV19.CD28.CD40 CoStAR (OSM_MOV19_spCD28_CD28_CD40) (receptor)”, for which, in test [3], the CD137 expression came to 50%; the CD137 expression in CoStAR+ TIL, coculture with FolR high expressing tumor digest came to 50%; the CD137 expression in CoStAR+ TIL, coculture with FolR low expressing tumor digest was above 20%; the IL-2 production came out at 5%. Also, in test [3], the TNFα production was 15%; the enhancement of Bcl-XL induction in the presence of OvCAR-OKT3 worked out at 35%; the enhancement of IL-2 induction in the presence of OvCAR-OKT3 is 30 to 50%; the enhancement of TNFα production in the presence of OvCAR-OKT3 was 25% and 50%. This substance came in with a mean fold expansion of T cells, 21 days with OvCAR-OKT3 in test [3] of 1300 fold.
